Substrate in data set [1]: O=C1O[C@H](COP(=O)(O)O)[C@H](O)[C@H]1O
In words: purified protein. The following applies: 2.5 mM Bicine pH 8.3, 0.2 M NaCl, zinc enzyme.

Substrate in data set [2]: O=C1O[C@@H](COP(=O)(O)O)[C@H](O)[C@H]1O
In words: purified protein. The settings on record: 2.5 mM Bicine pH 8.3, 0.2 M NaCl, zinc enzyme.

B1: Mag6390 (MAG_6390) (Mycoplasmopsis agalactiae PG2) (protein)
chain: MAKDKFVRTVLGDVPAESIGITDCHDHLIKNGGPEMHEHPDFLMIDVEAAKKEVQEYVDHGGKTIVTMDPPNVGRDVYRMLEIAEAFKGKANIVMSTGFHKAAFYDKYSSWLACVPTDDIVKMMVAEVEEGMDEYNYNGPVVKRSKAKAGIIKAGTGYAAIDRLELKALEVAARTSITTGCPILVHTQLGTMALEVAQHLIGFGANPRKIQLSHLNKNPDRYYYEKIIKETGVTICFDGPDRVKYYPDSLLADHIKYLVDKGLQKHITLSLDAGRILYQRNYGLTKGKETFGLSYLFERFIPLLKQVGVSQEAIDDILINNPREILAFDEPRVYDASKVSSEVVQLKKDLKLL
In general, Km refers to the substrate concentration at which the rate is half of its maximum. In general, kcat refers to the maximal rate divided by the concentration of active sites. The kcat/Km is the second-order rate constant that governs catalysis at low substrate concentration. On to B1, for which, in data set [1], the Michaelis constant (Km) was 900 ± 100 µM. Besides, in data set [2], the Michaelis-Menten constant (Km) is 660 ± 60 µM, the kcat came to 8.7 ± 0.3 s⁻¹ and the catalytic efficiency (kcat/Km) came out at 13000 ± 1000 M⁻¹ s⁻¹.

B2: Ms0025 (MS53_0025) (Mycoplasmopsis synoviae 53) (protein)
chain: MENKFARTVLGDIPVEKLGITDCHDHFIKNGGPEVEEHIDFLMLNVDASIKEFKEFIDRGGSTIVTMDPPNVGRDVLKTLEIANAVKNLGGNVIMSTGFHKAKFYDKYSSWLAVVPTEEIVKMCVAEIEEGMDEYNYNGPVVKRSKAKAGIIKAGTGYGAIDRLELKALEVAARTSILTGCPILVHTQLGTMALEVAKHLIGFGANPDKIQISHLNKNPDKYYYEKVIKETGVTLCFDGPDRVKYYPDSLLAENIKYLVDKGLQKHITLSLDAGRILYQRNYGLTKGKQTFGLAYLFDRFLPLLKQVGVSKEAIFDILVNNPKRVLAFDEKRNFDPLKVSKEVLELKKELNLN
As for B2, in data set [1], the Km amounted to 500 ± 40 µM, the turnover number (kcat) was 23.4 ± 0.8 s⁻¹ and the kcat/Km came out at 47000 ± 4000 M⁻¹ s⁻¹. For the same protein, the Km in data set [2] was found to be 300 ± 20 µM.

Values taken from publication PMC4108184.
